The source of these data is the supplement of paper PMC7877785.

± gives the uncertainty stated by the source.

A short description of this data set: self-splicing fitness, log relative to wild type (ln ratio); higher = more splicing; Tetrahymena group I intron in knt gene, E. coli kanamycin selection, DiMSum; sequences stand for … in CUCUCU…GGAGGGAAAAGUUAUCAGGCAUGCACCUGGUAGCUAGUCUUUAAACCAAUAGAUUGCAUCGGUUUAAAAGGCAAGACCGUCAAAUUGCGGGAAAGGGGUCAACAGCCGUUCAGUACCAAGUCUCAGGGGAAACUUUGAGAUGGCCUUGCAAAGGGUAUGGUAAUAAGCUGACGGACAUGGUCCUAACCACGCAGCCAAGUCCUAAGUCAACAGAUCUUCUGUUGAUAUGGAUGCAGUUCACAGACUAAAUGUCGGUCGGGGAAGAUGUAUUCUUCUCAUAAGAUAUAGUCGGACCUCUCCUUAAUGGGAGCUAGCGGAUGAAGUGAUGCAACACUGGAGCCGCUGGGAACUAAUUUGUAUGCGAAAGUAUAUUGAUUAGUUUUGGAGUACUCGUGGUCG
In a few lines: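 Fitness was computed with DiMSum as the error-weighted combination of replicate fold changes, kanamycin versus none, each normalised to wild type. The library randomised all eight intron nucleotides of the P1ex region, with the intron placed in the knt kanamycin-resistance gene on pET-22b(+) in E. coli BL21(DE3). Six replicate transformations were grown overnight at 37°C or 30°C on LB agar with or without 25 μg/mL kanamycin, plus 100 μg/mL carbenicillin, 50 μM IPTG and 0.2% rhamnose. Pooled colonies were amplicon-sequenced on an Illumina HiSeq 2500.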

For the sequence AUCAAGCAAUAUUACGCUGG, the “self-splicing fitness (ln)” value reads like this: (30 °C) -2.36 ± 0.096; (37 °C) -0.84 ± 0.12. In the case of UAGUAGCAAUAUUACGAUUU, the “self-splicing fitness (ln)” value reads like this: (30 °C) -1.45 ± 0.1; (37 °C) -0.988 ± 0.12.

Turning to UUUAAGCAAUAUUACGGACG, the “self-splicing fitness (ln)” value was -0.647 ± 0.15 (30 °C) and 0.235 ± 0.19 (37 °C).

Regarding AGAAAGCAAUAUUACGGACA, the “self-splicing fitness (ln)” value (30 °C) is -0.632 ± 0.2 and the “self-splicing fitness (ln)” value (37 °C) was -0.869 ± 0.29. The like results for UUGAAGCAAUAUUACGGAGC were, in that order, -2.81 ± 0.21 and -2.5 ± 0.41. Turning to GAAUAGCAAUAUUACGUUAU, the “self-splicing fitness (ln)” value was -2.79 ± 0.12 (30 °C) and -1.65 ± 0.14 (37 °C). The like results for AUGUAGCAAUAUUACGCCGA were, in that order, -2.44 ± 0.2 and -0.724 ± 0.16. The like results for CUAUAGCAAUAUUACGUCAU were, in that order, -2.83 ± 0.33 and -3.05 ± 0.24. On the same counts, the results for AGAAAGCAAUAUUACGUUGG are -3.2 ± 0.2 and -0.323 ± 0.12. Regarding AUUAAGCAAUAUUACGAGUG, the “self-splicing fitness (ln)” value was -2.42 ± 0.1 (30 °C) and -2.37 ± 0.14 (37 °C). On the same counts, the results for AAAAAGCAAUAUUACGAGCU are -0.615 ± 0.092 and -0.172 ± 0.13. For AUUGAGCAAUAUUACGCUUG, the “self-splicing fitness (ln)” value (30 °C) was -2.91 ± 0.18 and the “self-splicing fitness (ln)” value (37 °C) was -0.989 ± 0.18. Turning to UCUAAGCAAUAUUACGCAGA, the “self-splicing fitness (ln)” value (37 °C) was -0.999 ± 0.21. As to CGUAAGCAAUAUUACGUAGC, the “self-splicing fitness (ln)” value by setting is: (30 °C) -4.38 ± 0.36; (37 °C) -1.62 ± 0.26. The like results for AACGAGCAAUAUUACGGCAU were, in that order, -1.91 ± 0.1 and -0.446 ± 0.12.

With CUAUAGCAAUAUUACGCACG, the “self-splicing fitness (ln)” value runs as follows: (30 °C) -0.606 ± 0.14; (37 °C) -0.255 ± 0.23. CAUUAGCAAUAUUACGACAC: the “self-splicing fitness (ln)” value (30 °C) was -2.3 ± 0.2 and the “self-splicing fitness (ln)” value (37 °C) is -1.89 ± 0.23. Consider ACUGAGCAAUAUUACGCCGA, for which the “self-splicing fitness (ln)” value by setting is: (30 °C) -3.61 ± 0.47; (37 °C) -1.33 ± 0.23. With ACUUAGCAAUAUUACGCGGA, the “self-splicing fitness (ln)” value reads like this: (30 °C) -2.36 ± 0.11; (37 °C) -0.613 ± 0.088. As to GUGUAGCAAUAUUACGAAUG, the “self-splicing fitness (ln)” value (37 °C) was -1.51 ± 0.25.

Consider UUAAAGCAAUAUUACGUGCA, for which the “self-splicing fitness (ln)” value runs as follows: (30 °C) -0.0172 ± 0.1; (37 °C) 0.542 ± 0.13.

UGAUAGCAAUAUUACGUUCC: the “self-splicing fitness (ln)” value reads like this: (30 °C) -1.67 ± 0.24; (37 °C) -1.1 ± 0.4. On the same counts, the results for GUGGAGCAAUAUUACGGAGG are -2.41 ± 0.28 and -0.95 ± 0.28. On the same counts, the results for CUCAAGCAAUAUUACGUUGU are -3.9 ± 0.36 and -2.89 ± 0.23. On to CAGUAGCAAUAUUACGUAAG, for which the “self-splicing fitness (ln)” value was 0.131 ± 0.069 (30 °C) and -0.159 ± 0.086 (37 °C). On the same counts, the results for CGACAGCAAUAUUACGGCCG are -2.22 ± 0.12 and -1.21 ± 0.12. The like results for GGUUAGCAAUAUUACGUGUG were, in that order, -2.43 ± 0.12 and -1.56 ± 0.11. On the same counts, the results for UUACAGCAAUAUUACGUUCA are -0.535 ± 0.11 and 0.086 ± 0.12. Take UGGAAGCAAUAUUACGUGGC: the “self-splicing fitness (ln)” value reads like this: (30 °C) -3.41 ± 0.25; (37 °C) -2.71 ± 0.33. On the same counts, the results for GCCCAGCAAUAUUACGCCAU are -2.56 ± 0.22 and -3.35 ± 0.37. The like results for AGUAAGCAAUAUUACGCAAA were, in that order, -2.45 ± 0.35 and -1.46 ± 0.25. The like results for ACCUAGCAAUAUUACGUCAU were, in that order, -2.11 ± 0.12 and -1.63 ± 0.12.

Consider GACAAGCAAUAUUACGUGCG, for which the “self-splicing fitness (ln)” value is, setting by setting: (30 °C) -1.16 ± 0.068; (37 °C) -0.532 ± 0.081. On to GGAAAGCAAUAUUACGGUUC, for which the “self-splicing fitness (ln)” value (30 °C) was -3.33 ± 0.43 and the “self-splicing fitness (ln)” value (37 °C) was -2.23 ± 0.49. In the case of GAAGAGCAAUAUUACGGACG, the “self-splicing fitness (ln)” value (30 °C) was -2.59 ± 0.27. Turning to AUCCAGCAAUAUUACGUAAU, the “self-splicing fitness (ln)” value is, setting by setting: (30 °C) -0.922 ± 0.072; (37 °C) -0.492 ± 0.079. On the same counts, the results for UAAAAGCAAUAUUACGUAGC are -3.26 ± 0.19 and -2.72 ± 0.18. As for UCGUAGCAAUAUUACGUGGA, the “self-splicing fitness (ln)” value is -2.39 ± 0.16 (30 °C) and -2.36 ± 0.13 (37 °C). For GCACAGCAAUAUUACGAGCU, the “self-splicing fitness (ln)” value by setting is: (30 °C) -2.63 ± 0.11; (37 °C) -1.07 ± 0.1. Regarding CCCAAGCAAUAUUACGUCCC, the “self-splicing fitness (ln)” value (30 °C) is -3.35 ± 0.43. As to GACCAGCAAUAUUACGCACC, the “self-splicing fitness (ln)” value (30 °C) is -0.0772 ± 0.089 and the “self-splicing fitness (ln)” value (37 °C) was -1.06 ± 0.11. On the same counts, the results for CAUGAGCAAUAUUACGUCAG are -1.35 ± 0.095 and -1.13 ± 0.12. Take AUUAAGCAAUAUUACGGAUU: the “self-splicing fitness (ln)” value (30 °C) is -2.03 ± 0.12 and the “self-splicing fitness (ln)” value (37 °C) is -0.791 ± 0.15. With CAUUAGCAAUAUUACGACUA, the “self-splicing fitness (ln)” value (30 °C) was -1.75 ± 0.49. For UUGCAGCAAUAUUACGCGCG, the “self-splicing fitness (ln)” value is, setting by setting: (30 °C) -1.88 ± 0.12; (37 °C) -1.29 ± 0.14. With UUGAAGCAAUAUUACGACCG, the “self-splicing fitness (ln)” value reads like this: (30 °C) -0.105 ± 0.28; (37 °C) 0.113 ± 0.28. The like results for UACAAGCAAUAUUACGGAUC were, in that order, -2.59 ± 0.21 and 0.047 ± 0.15. In the case of AAUGAGCAAUAUUACGGCCC, the “self-splicing fitness (ln)” value (30 °C) was -1.23 ± 0.47 and the “self-splicing fitness (ln)” value (37 °C) was -1.48 ± 0.37. On the same counts, the results for CGGUAGCAAUAUUACGGCAU are -2.98 ± 0.32 and -2.11 ± 0.22.

Take CCCCAGCAAUAUUACGGAGU: the “self-splicing fitness (ln)” value runs as follows: (30 °C) -4.02 ± 0.15; (37 °C) -2.75 ± 0.15.

For UAUAAGCAAUAUUACGACAG, the “self-splicing fitness (ln)” value (30 °C) is -0.587 ± 0.11 and the “self-splicing fitness (ln)” value (37 °C) was -0.0617 ± 0.15. On the same counts, the results for UUCCAGCAAUAUUACGUCCC are -2 ± 0.33 and -1.84 ± 0.3.

As to GUAGAGCAAUAUUACGGACC, the “self-splicing fitness (ln)” value (30 °C) is -1.22 ± 0.14 and the “self-splicing fitness (ln)” value (37 °C) came to 0.305 ± 0.2. On to CACUAGCAAUAUUACGAUAC, for which the “self-splicing fitness (ln)” value is, setting by setting: (30 °C) -3.41 ± 0.28; (37 °C) -2.81 ± 0.38. For ACCUAGCAAUAUUACGGCCU, the “self-splicing fitness (ln)” value was -0.404 ± 0.069 (30 °C) and -0.963 ± 0.075 (37 °C). The like results for AUUAAGCAAUAUUACGAGAG were, in that order, -2.61 ± 0.24 and -1.83 ± 0.27. Regarding AGCCAGCAAUAUUACGCUAA, the “self-splicing fitness (ln)” value by setting is: (30 °C) -2.53 ± 0.18; (37 °C) -0.465 ± 0.12. On the same counts, the results for UGGCAGCAAUAUUACGAACA are -0.346 ± 0.11 and 0.139 ± 0.13.

Consider UUCCAGCAAUAUUACGGCUC, for which the “self-splicing fitness (ln)” value runs as follows: (30 °C) -2.48 ± 0.21; (37 °C) -0.924 ± 0.21. On the same counts, the results for AUCUAGCAAUAUUACGCUCA are -0.577 ± 0.17 and -0.0187 ± 0.2. Take UCUCAGCAAUAUUACGGCCG: the “self-splicing fitness (ln)” value (37 °C) was -2.73 ± 0.38.

Consider GCGCAGCAAUAUUACGAAUU, for which the “self-splicing fitness (ln)” value (30 °C) is -1.64 ± 0.14 and the “self-splicing fitness (ln)” value (37 °C) was -0.932 ± 0.22. For the sequence AUGCAGCAAUAUUACGCGAC, the “self-splicing fitness (ln)” value is -2.18 ± 0.17 (30 °C) and -0.372 ± 0.17 (37 °C). On the same counts, the results for AACAAGCAAUAUUACGACAU are -0.261 ± 0.01 and 0.0604 ± 0.032. CAACAGCAAUAUUACGUCUU: the “self-splicing fitness (ln)” value was -1.48 ± 0.061 (30 °C) and -0.62 ± 0.07 (37 °C). The like results for CGCUAGCAAUAUUACGAGUG were, in that order, -2.91 ± 0.16 and -3.22 ± 0.17. On the same counts, the results for UAGAAGCAAUAUUACGAAUG are -0.651 ± 0.071 and -0.298 ± 0.09.

On to AAUCAGCAAUAUUACGAUUA, for which the “self-splicing fitness (ln)” value is -0.229 ± 0.088 (30 °C) and -0.426 ± 0.088 (37 °C).

CACUAGCAAUAUUACGGAUC: the “self-splicing fitness (ln)” value (30 °C) is -1.79 ± 0.19. For UGACAGCAAUAUUACGGGUA, the “self-splicing fitness (ln)” value runs as follows: (30 °C) -1.07 ± 0.055; (37 °C) -0.216 ± 0.062. Consider GGGUAGCAAUAUUACGGACU, for which the “self-splicing fitness (ln)” value by setting is: (30 °C) -0.272 ± 0.19; (37 °C) 0.331 ± 0.24. On the same counts, the results for UUGCAGCAAUAUUACGGCAA are -3.02 ± 0.23 and -2.27 ± 0.24. The like results for CCGUAGCAAUAUUACGUUGG were, in that order, -4.39 ± 0.27 and -3.1 ± 0.19.

CCUCAGCAAUAUUACGUUAA: the “self-splicing fitness (ln)” value by setting is: (30 °C) -2.89 ± 0.17; (37 °C) -2.96 ± 0.23. As to AUCGAGCAAUAUUACGUCGG, the “self-splicing fitness (ln)” value (30 °C) is -2 ± 0.13 and the “self-splicing fitness (ln)” value (37 °C) is -1.42 ± 0.16. Regarding AAACAGCAAUAUUACGCCAC, the “self-splicing fitness (ln)” value (37 °C) was -1.77 ± 0.31.

Take UAAGAGCAAUAUUACGAGCC: the “self-splicing fitness (ln)” value by setting is: (30 °C) -3.56 ± 0.25; (37 °C) -2.26 ± 0.24.
